Test results as given in patent US20240301052A1 (LANOVA MEDICINES DEVELOPMENT, published 2024).

Tests used:
human SLC34A2 [1] = biological target: T1, human SLC34A2 (human, UniProt O95436 1-690); experiment: cell-based or functional assay
T1 sequence (looked up): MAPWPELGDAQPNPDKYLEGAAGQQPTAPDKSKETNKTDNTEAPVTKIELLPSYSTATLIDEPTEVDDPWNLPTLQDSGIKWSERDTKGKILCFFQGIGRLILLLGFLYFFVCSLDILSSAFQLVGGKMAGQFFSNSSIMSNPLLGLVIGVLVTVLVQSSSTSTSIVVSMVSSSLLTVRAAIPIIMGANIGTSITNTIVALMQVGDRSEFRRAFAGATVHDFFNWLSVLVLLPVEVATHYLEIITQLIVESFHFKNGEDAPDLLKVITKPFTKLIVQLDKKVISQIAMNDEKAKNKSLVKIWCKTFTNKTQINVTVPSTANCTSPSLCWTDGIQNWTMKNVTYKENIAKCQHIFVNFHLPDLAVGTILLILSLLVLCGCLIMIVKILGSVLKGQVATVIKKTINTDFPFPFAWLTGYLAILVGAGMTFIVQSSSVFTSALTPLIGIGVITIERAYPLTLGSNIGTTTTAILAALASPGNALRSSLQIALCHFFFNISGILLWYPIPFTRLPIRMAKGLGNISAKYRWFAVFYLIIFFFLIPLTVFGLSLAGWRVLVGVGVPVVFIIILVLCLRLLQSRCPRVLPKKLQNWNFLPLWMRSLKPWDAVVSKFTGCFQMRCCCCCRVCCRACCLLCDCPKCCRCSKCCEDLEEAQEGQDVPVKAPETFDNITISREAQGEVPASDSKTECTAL

human SLC34A2 [2] = biological target: T1, human SLC34A2; experiment: FACS, HEK293/human SLC34A2 cells
Procedure: (§1) Briefly, OVCAR3 cells or HEK293 cells expressing human SLC34A2 were incubated with chimeric antibodies (from 200 nM, 4 folds dilution, 8 points). After incubation at 4° C. for 60 minutes, the cells were washed with FACS buffer twice, then stained with fluorescent conjugated secondary antibody at 4° C. for 30 minutes. After that the cells were washed twice and analyzed by flow cytometry.

Cynomolgus SLC34A2 = biological target: T2, Cynomolgus SLC34A2 (Cynomolgus, UniProt A0A2K5UHY1 1-690); experiment: FACS, cells expressing Cynomolgus SLC34A2
T2 construct: whole, on cells; also called Cyno SLC34A2
T2 sequence: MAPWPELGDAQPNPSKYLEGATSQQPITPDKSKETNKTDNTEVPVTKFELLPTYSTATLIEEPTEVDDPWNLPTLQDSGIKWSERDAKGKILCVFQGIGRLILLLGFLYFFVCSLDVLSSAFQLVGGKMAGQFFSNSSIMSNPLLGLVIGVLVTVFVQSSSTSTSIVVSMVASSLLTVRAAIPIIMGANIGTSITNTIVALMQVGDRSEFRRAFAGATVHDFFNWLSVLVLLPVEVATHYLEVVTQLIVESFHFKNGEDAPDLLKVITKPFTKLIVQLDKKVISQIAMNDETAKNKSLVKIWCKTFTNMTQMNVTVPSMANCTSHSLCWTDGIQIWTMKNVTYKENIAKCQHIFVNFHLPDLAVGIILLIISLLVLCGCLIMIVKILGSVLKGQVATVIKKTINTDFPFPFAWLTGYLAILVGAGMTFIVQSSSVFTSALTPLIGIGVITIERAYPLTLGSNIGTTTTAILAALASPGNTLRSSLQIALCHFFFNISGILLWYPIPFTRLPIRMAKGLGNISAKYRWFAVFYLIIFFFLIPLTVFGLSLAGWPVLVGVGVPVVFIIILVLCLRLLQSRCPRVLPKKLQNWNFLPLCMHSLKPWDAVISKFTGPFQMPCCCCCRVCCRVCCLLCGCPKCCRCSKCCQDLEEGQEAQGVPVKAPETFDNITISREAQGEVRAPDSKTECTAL

human SLC34A2 [3] = biological target: T1, human SLC34A2; experiment: cell-based or functional assay; remark: listed apart in the source
human SLC34A2 [4] = biological target: T1, human SLC34A2; experiment: FACS, OVCAR3 cells
Procedure: In this example, cell based binding of chimeric antibodies (hIgG1) prepared from the murine antibodies on human SLC34A2 expressing cells were assessed using flow cytometry.
as §1

Rhesus SLC34A2 = biological target: T3, Rhesus SLC34A2 (Rhesus, UniProt F7HDA3 1-690); experiment: FACS, HEK293/Rhesus SLC34A2 cells
T3 construct: whole, on cells
T3 sequence: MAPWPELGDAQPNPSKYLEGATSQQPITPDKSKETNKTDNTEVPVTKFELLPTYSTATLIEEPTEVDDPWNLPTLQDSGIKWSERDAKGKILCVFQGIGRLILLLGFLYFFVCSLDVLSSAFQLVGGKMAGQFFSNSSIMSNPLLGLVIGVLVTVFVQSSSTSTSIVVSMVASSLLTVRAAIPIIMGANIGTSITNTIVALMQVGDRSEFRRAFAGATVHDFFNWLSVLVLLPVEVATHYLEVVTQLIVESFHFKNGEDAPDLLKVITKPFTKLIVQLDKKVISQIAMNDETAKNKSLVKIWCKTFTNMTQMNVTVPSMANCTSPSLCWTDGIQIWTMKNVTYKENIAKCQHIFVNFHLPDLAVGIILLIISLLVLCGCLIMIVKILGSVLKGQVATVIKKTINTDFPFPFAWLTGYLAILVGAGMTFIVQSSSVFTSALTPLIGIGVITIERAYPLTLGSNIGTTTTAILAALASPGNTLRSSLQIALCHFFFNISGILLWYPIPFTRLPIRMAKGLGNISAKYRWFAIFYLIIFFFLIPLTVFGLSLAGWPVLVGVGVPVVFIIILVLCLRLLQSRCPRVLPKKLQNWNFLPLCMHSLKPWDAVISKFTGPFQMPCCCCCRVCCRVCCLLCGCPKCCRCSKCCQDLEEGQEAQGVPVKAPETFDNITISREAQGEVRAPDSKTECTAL
Procedure: as §1, with “the Rhesus SLC34A2 expressing HEK293 engineering” for “OVCAR3”, “(HEK293/Rhesus_SLC34A2)” for “or HEK293 cells expressing human SLC34A2”, “Abs” for “antibodies”

human SLC34A2 [5] = biological target: T1, human SLC34A2; experiment: FACS, RMG-1 cells
Procedure: Based on the foregoing cell-based binding results, some of the chimeric antibodies were selected for further cell based binding on human SLC34A2 expressing cells using flow cytometry. RMG-1 cells were incubated with the selected chimeric antibodies (from 200 nM, 4 folds dilution, 8 points). After incubation at 4° C. for 60 minutes, the cells were washed with FACS buffer twice, then stained with fluorescent conjugated secondary antibody at 4° C. for 30 minutes. Afterwards the cells were washed twice and analyzed by flow cytometry.

human SLC34A2 [6] = biological target: T1, human SLC34A2; experiment: FACS, OVCAR3 cells; remark: listed apart in the source

Binder	EC50 (human SLC34A2 [2])	Top (MFI) (human SLC34A2 [2])	EC50 (Cynomolgus SLC34A2)	Top (MFI) (Cynomolgus SLC34A2)	ADCC reporter EC50 (human SLC34A2 [3])	ADCC reporter Top (MFI) (human SLC34A2 [3])	EC50 (human SLC34A2 [4])	Top (MFI) (human SLC34A2 [4])	EC50 (Rhesus SLC34A2)	Top (MFI) (Rhesus SLC34A2)	EC50 (human SLC34A2 [5])	Top (MFI) (human SLC34A2 [5])	EC50 (human SLC34A2 [6])	Top (MFI) (human SLC34A2 [6])	cytotoxicity EC50 (human SLC34A2 [1])	cytotoxicity Inhibition % (human SLC34A2 [1])
xi69B11D8 hIgG1 (antibody, V domains shown, chimeric, hIgG1) VH: EVQLQQSGPELVKPGAAVKISCKTSGYTFTDYTMHWVRQSHGKSLEWIGGIHPNNGGTGYNQKLRGKATLTVDKSSSTAYMELRSLTSDDSAVYYCARGRESDGWFTYWGQGTLVTFSA VL: DVHMTQTTSSLSASLGDRVTITCSASQGIGNSLNWYQQQPDGTVKLLIYYTSRLHSGVPSRFSGSGSGTDYSLTISNLEPEDLATYYCQQYSRFPPTFGGGTKLEIK	1.19 nM	48000 MFI	88.3 nM	2570 MFI	2.7 nM	216000 MFI	2.12 nM	27700 MFI	1.68 nM	11600 MFI	1.7 nM	9200 MFI			0.67 nM	86.9%
xi84F2D10 hIgG1 (antibody, V domains shown, chimeric, hIgG1) VH: QVQLQQPGAVLVKPGASVKMSCKASGYTFTSYNLHWVKQTPGQGLEWIGAIYPGNGDTSYIQKFKGKATLTADKSSSTAYMQLSSLTSEDSAVYYCARGKYGNYEGFAYWGQGTLVTVSA VL: DILLTQSPAILSVSPGERVSISCRASQSIGTSIYWYQQRRNGSPRLLIKFASESISGIPSRFSGSGSGTDFTLSINSVESEDIADYYCQQNNRWPFTFGSGTKLEIK	1.37 nM	109000 MFI	68.5 nM	1280 MFI	2.5 nM	409000 MFI	3.84 nM	40500 MFI	46 nM	8840 MFI	4.33 nM	8600 MFI			0.61 nM	102%
63A11D5B4.p1.z16 hIgG1 (antibody, V domains shown, humanized hIgG1) VH: QVQLQQSGAEVVKPGASVKMSCKTSGYTFITYNMHWVKQAPGQGREWIGAIYPGSGDTSYNQKFKGRATLTADKSTSTAYMELSSLRSEDTAVYYCSISTIITTGAVDYWGQGTSVTVSS VL: DIVMTQSPSSLSTSVGDRVTITCKASQDVGTAVAWYQQKPGQSPKLLIYWTSTRHTGVPDRFTGSGSGTDFTLIIRSLQPEDVATYFCQQYSRIPLTFGSGTKVEIK													11.4 nM	29500 MFI		
xi18G1H4 hIgG1 (antibody, V domains shown, chimeric, hIgG1) VH: QVQLQQPGAELVKPGASVRMSCKASAYTFTTYNLHWVKQTPGQGLEWIGAISPGNGVTSYNQKFRGKATLTADKSSSTAYMQLSSLTSEDSAVYYCARGYGYSVGAMDYWGQGTSVTVSS VL: DIQMTQTTSSLSASLGDRVNISCSASQGIGNFLNWYQQKPDGTVKLLIYYTSSLHSGVPPRFSGSGSGTDYSLTISNLEPEDIATYYCQQYHKLPLTFGAGTKLELK	0.86 nM	106000 MFI	4.93 nM	4090 MFI	2.2 nM	228000 MFI	2.75 nM	42500 MFI	2.9 nM	14300 MFI	7.91 nM	9800 MFI			0.36 nM	82.7%

Further binders by falling EC50 (human SLC34A2 [2]), results first:

EC50 (human SLC34A2 [2])	Top (MFI) (human SLC34A2 [2])	EC50 (Cynomolgus SLC34A2)	Top (MFI) (Cynomolgus SLC34A2)	ADCC reporter EC50 (human SLC34A2 [3])	ADCC reporter Top (MFI) (human SLC34A2 [3])	EC50 (human SLC34A2 [4])	Top (MFI) (human SLC34A2 [4])	EC50 (Rhesus SLC34A2)	Top (MFI) (Rhesus SLC34A2)	EC50 (human SLC34A2 [5])	Top (MFI) (human SLC34A2 [5])	EC50 (human SLC34A2 [6])	Top (MFI) (human SLC34A2 [6])	Binder	cytotoxicity EC50 (human SLC34A2 [1])	cytotoxicity Inhibition % (human SLC34A2 [1])
2.29 nM	47500 MFI	3.79 nM	3730 MFI	2.1 nM	238000 MFI	4.66 nM	27600 MFI	2.72 nM	14800 MFI	3.76 nM	9500 MFI			xi16E5D10 hIgG1 (antibody, V domains shown, chimeric, hIgG1) VH: QVQLQQPGAELVKPGASVMMSCKASGYTFSNHNLHWLKKTPGQGLDWIGAIYPGNGDTSYNQKFKGRATLTVDKSSNTAYMQFSSLTSEDSAVFYCARGKYGNGAMDYWGQGTAVTVSS VL: DIVMTQSHKFMSTSVGDRVSITCRASQDVGTAVVWYQQKLGQSPKLLFDWASSRHTGVPDRFTGSGSGTDFTLTITDVQSEDLADYFCQQYSRQPLTFGAGTKLELK	0.78 nM	93.1%
1.88 nM	107000 MFI	2.81 nM	3770 MFI	6.4 nM	569000 MFI	4.27 nM	43000 MFI	3.19 nM	13400 MFI	4.73 nM	9420 MFI			xi28G3C6B9 hIgG1 (antibody, V domains shown, chimeric, hIgG1) VH: QVQLQQPGAEVVKPGASVKMSCKASGYTFTSYIIHWVKQAPGQGLEWIGAIYPGNGDTSYSQRFKGKAKLTADKSSSTAYMQLNSLTSEDSVVYYCARGNNYGSPAWFGYWGQGTLVTVSA VL: DIVLTQSPVTLSVTPGDRVSLSCRASQSIGNFLYWYQQKSHESPRLLIKYASQSMSGIPSRFSGSGSGTDFTLSISRVETEDFGMYFCQQSNSWPVTFGAGTKLELK	0.36 nM	86.4%
1.17 nM	91300 MFI	5.47 nM	3150 MFI	4 nM	486000 MFI	1.57 nM	39600 MFI	2.24 nM	13700 MFI	2.58 nM	9370 MFI			xi94B10A8 hIgG1 (antibody, V domains shown, chimeric, hIgG1) VH: QVQLQQTGAELVKPGASVKMSCKASGYTFTGYIIHWIKQRPGQGLEWIGAIYPGNGDTSYNQKIKGRATLTADKSSTTAYMQLSSLTSEDSAVYYCARGDYGNPAWFAYWGQGTLVTVSA VL: DVVLTQSPATLSVTPGDRVSLSCRASQSISNYLYWYQQKAHESPRLLIKFASQSISGIPSRFRGSGSGTDFTLSINSVETEDFGMYFCQQSNKWPLTFGAGTKLELK	0.7 nM	97.5%
